Reference: article PMC5458251

Target: SEPT9_i1-YN (split-YFP chimera: septin 9 isoform 1 with EE tag, linker and N-terminal YFP fragment on its C-terminus) (human) (UniProt Q9UHD8)
Assay: split reporter (BiFC, NanoBiT); split YFP (YN/YC) in live PC-3 cells, transient co-transfection with 10-fold more HIF-1α plasmid than SEPT9_i1 plasmid, confocal imaging 48 h after transfection; cells treated overnight with 250 μM CoCl2, 100 μM DBM, DBM with 1 μM 17-AAG or 150 μM FCF, or 0.01% DMSO

UniProt Q9UHD8, sequence (Q9UHD8 whole entry, change not shown, the tested form may be a part, canonical isoform): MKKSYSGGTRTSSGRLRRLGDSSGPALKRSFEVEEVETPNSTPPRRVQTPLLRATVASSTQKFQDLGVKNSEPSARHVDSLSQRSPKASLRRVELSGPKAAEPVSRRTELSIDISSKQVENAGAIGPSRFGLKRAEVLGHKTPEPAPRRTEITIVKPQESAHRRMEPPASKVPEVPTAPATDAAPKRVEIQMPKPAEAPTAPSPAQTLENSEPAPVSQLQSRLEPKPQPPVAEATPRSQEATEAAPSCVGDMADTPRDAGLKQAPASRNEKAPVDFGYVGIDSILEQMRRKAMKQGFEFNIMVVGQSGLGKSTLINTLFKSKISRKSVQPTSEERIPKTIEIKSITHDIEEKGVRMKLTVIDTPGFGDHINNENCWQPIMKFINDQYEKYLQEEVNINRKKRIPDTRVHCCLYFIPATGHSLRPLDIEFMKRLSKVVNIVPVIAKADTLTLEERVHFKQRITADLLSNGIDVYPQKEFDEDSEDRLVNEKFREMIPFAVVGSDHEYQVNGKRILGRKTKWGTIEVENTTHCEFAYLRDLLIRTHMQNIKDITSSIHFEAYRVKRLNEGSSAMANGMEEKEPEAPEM

- fold BiFC signal against YC-ΔHLH-HIF-1α with SEPT9 i1-YN: 11 fold
Substance: YC-HIF-1α-DPM (YC chimera of double proline mutated HIF-1α) (from UniProt Q16665 1-826) (natural protein)
